± gives the uncertainty stated by the source.
Assay: self-splicing fitness, log relative to wild type (ln ratio); higher = more splicing; Tetrahymena group I intron in knt gene, E. coli kanamycin selection, DiMSum; sequences stand for … in CUCUCU…GGAGGGAAAAGUUAUCAGGCAUGCACCUGGUAGCUAGUCUUUAAACCAAUAGAUUGCAUCGGUUUAAAAGGCAAGACCGUCAAAUUGCGGGAAAGGGGUCAACAGCCGUUCAGUACCAAGUCUCAGGGGAAACUUUGAGAUGGCCUUGCAAAGGGUAUGGUAAUAAGCUGACGGACAUGGUCCUAACCACGCAGCCAAGUCCUAAGUCAACAGAUCUUCUGUUGAUAUGGAUGCAGUUCACAGACUAAAUGUCGGUCGGGGAAGAUGUAUUCUUCUCAUAAGAUAUAGUCGGACCUCUCCUUAAUGGGAGCUAGCGGAUGAAGUGAUGCAACACUGGAGCCGCUGGGAACUAAUUUGUAUGCGAAAGUAUAUUGAUUAGUUUUGGAGUACUCGUGGUCG
Procedure, shortened: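 Colonies from six replicate transformations of E. coli BL21(DE3) were pooled and amplicon-sequenced on an Illumina HiSeq 2500. The library placed an intron with all eight P1ex-region nucleotides randomised inside the knt kanamycin-resistance gene on pET-22b(+), and cells grew overnight at 37°C or 30°C on LB agar with or without 25 μg/mL kanamycin (plus 100 μg/mL carbenicillin, 50 μM IPTG, 0.2% rhamnose). Fitness is the DiMSum error-weighted combination of wild-type-normalised replicate fold changes, kanamycin versus none.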

Row | Sequence | self-splicing fitness (ln) (30 °C) | self-splicing fitness (ln) (37 °C)
1 | GUCCAGCAAUAUUACGCGAC | -3.04 ± 0.19 | -2.86 ± 0.21
2 | GUCCAGCAAUAUUACGCGAG | -0.816 ± 0.088 | -0.322 ± 0.1
3 | GUCCAGCAAUAUUACGCGUU | -0.325 ± 0.078 | 0.304 ± 0.1
4 | GUCCAGCAAUAUUACGCUAC | -4.03 ± 0.16 | -2.96 ± 0.14
5 | GUCCAGCAAUAUUACGGAAU | -0.712 ± 0.079 | 0.0755 ± 0.094
6 | GUCCAGCAAUAUUACGGAGA | -0.714 ± 0.096 | 0.585 ± 0.11
7 | GUCCAGCAAUAUUACGGCCU | -3.36 ± 0.2 | -1.14 ± 0.13
8 | GUCCAGCAAUAUUACGGGUU | -1.58 ± 0.07 | -1.03 ± 0.073
9 | GUCCAGCAAUAUUACGGUAG | -2.08 ± 0.083 | -1.61 ± 0.096
10 | GUCCAGCAAUAUUACGGUAU | -0.797 ± 0.052 | 0.0993 ± 0.064
11 | GUCCAGCAAUAUUACGGUCA | -0.244 ± 0.07 | -0.0837 ± 0.072
12 | GUCCAGCAAUAUUACGUCAC | -2.41 ± 0.14 | -0.6 ± 0.13
13 | GUCCAGCAAUAUUACGUCGU | -0.0754 ± 0.066 | -0.486 ± 0.088
14 | GUCCAGCAAUAUUACGUCUC | 0.725 ± 0.087 | -0.134 ± 0.087
15 | GUCCAGCAAUAUUACGUGGA | -3.34 ± 0.21 | -1.91 ± 0.19
16 | GUCCAGCAAUAUUACGUGGC | -3.97 ± 0.24 | -3.46 ± 0.39
17 | GUCGAGCAAUAUUACGAAUA | -2.42 ± 0.36 | -2.1 ± 0.34
18 | GUCGAGCAAUAUUACGACAG | -2.66 ± 0.23 | -1.75 ± 0.28
19 | GUCGAGCAAUAUUACGACAU | -0.997 ± 0.015 | -0.465 ± 0.033
20 | GUCGAGCAAUAUUACGACUG | -3.17 ± 0.45 | -0.232 ± 0.18
21 | GUCGAGCAAUAUUACGAUCU | -2.87 ± 0.18 | -0.451 ± 0.12
22 | GUCGAGCAAUAUUACGAUUC | -1.64 ± 0.24 | -0.941 ± 0.26
23 | GUCGAGCAAUAUUACGAUUU | -0.559 ± 0.2 | -0.273 ± 0.19
24 | GUCGAGCAAUAUUACGCAUA | -2.14 ± 0.18 | -1.6 ± 0.16
25 | GUCGAGCAAUAUUACGCGCU | -2.6 ± 0.3 | -1.17 ± 0.32

Row | Sequence | self-splicing fitness (ln) (30 °C) | self-splicing fitness (ln) (37 °C)
26 | GUCGAGCAAUAUUACGCGGA | -3.08 ± 0.29 | -1.25 ± 0.19
27 | GUCGAGCAAUAUUACGGAGG | -3.76 ± 0.39 | -2.17 ± 0.23
28 | GUCGAGCAAUAUUACGGAUA | – | -1.25 ± 0.27
29 | GUCGAGCAAUAUUACGGUAG | -2.02 ± 0.11 | -2.54 ± 0.25
30 | GUCGAGCAAUAUUACGGUCA | -1.37 ± 0.26 | -0.499 ± 0.24
31 | GUCGAGCAAUAUUACGUCAU | -1.8 ± 0.12 | -1.13 ± 0.1
32 | GUCGAGCAAUAUUACGUCUC | -1.76 ± 0.42 | -0.346 ± 0.27
33 | GUCGAGCAAUAUUACGUGAA | -1.6 ± 0.12 | -1.86 ± 0.17
34 | GUCGAGCAAUAUUACGUUAU | -0.538 ± 0.12 | -2.13 ± 0.21
35 | GUCGAGCAAUAUUACGUUCU | -1.32 ± 0.15 | 0.217 ± 0.13
36 | GUCGAGCAAUAUUACGUUGC | -2.19 ± 0.2 | -2.25 ± 0.41
37 | GUCUAGCAAUAUUACGAAGU | -1.23 ± 0.19 | -0.107 ± 0.14
38 | GUCUAGCAAUAUUACGAAUC | -1.33 ± 0.19 | 1.43 ± 0.2
39 | GUCUAGCAAUAUUACGACCG | -1.42 ± 0.4 | -2.17 ± 0.33
40 | GUCUAGCAAUAUUACGAGCG | -2.05 ± 0.14 | -0.599 ± 0.16
41 | GUCUAGCAAUAUUACGCAAA | -1.12 ± 0.13 | -0.541 ± 0.12
42 | GUCUAGCAAUAUUACGCAAU | -0.524 ± 0.082 | -0.156 ± 0.082
43 | GUCUAGCAAUAUUACGCACA | -0.72 ± 0.12 | -0.113 ± 0.14
44 | GUCUAGCAAUAUUACGCACC | -1.81 ± 0.11 | -0.328 ± 0.14
45 | GUCUAGCAAUAUUACGCAGA | – | -2.48 ± 0.31
46 | GUCUAGCAAUAUUACGCCGC | -3.25 ± 0.38 | –
47 | GUCUAGCAAUAUUACGCCUA | -0.955 ± 0.31 | -0.323 ± 0.27
48 | GUCUAGCAAUAUUACGCGAA | -1.36 ± 0.23 | -0.134 ± 0.19
49 | GUCUAGCAAUAUUACGCGAU | -1.94 ± 0.21 | -2.29 ± 0.23
50 | GUCUAGCAAUAUUACGCGGU | -1.78 ± 0.26 | -1.04 ± 0.38

Row | Sequence | self-splicing fitness (ln) (30 °C) | self-splicing fitness (ln) (37 °C)
51 | GUCUAGCAAUAUUACGCUCG | -0.688 ± 0.23 | -0.634 ± 0.27
52 | GUCUAGCAAUAUUACGCUGU | -0.966 ± 0.09 | -0.224 ± 0.094
53 | GUCUAGCAAUAUUACGGCCG | – | -1.78 ± 0.35
54 | GUCUAGCAAUAUUACGGCGC | -0.167 ± 0.1 | 0.985 ± 0.12
55 | GUCUAGCAAUAUUACGGCUC | -0.737 ± 0.086 | 0.57 ± 0.12
56 | GUCUAGCAAUAUUACGGUCG | -1.06 ± 0.089 | -0.996 ± 0.11
57 | GUCUAGCAAUAUUACGGUGA | -2.81 ± 0.25 | -0.385 ± 0.21
58 | GUCUAGCAAUAUUACGUCGC | -0.459 ± 0.2 | 0.215 ± 0.19
59 | GUCUAGCAAUAUUACGUGCU | -3.08 ± 0.23 | -1.87 ± 0.39
60 | GUCUAGCAAUAUUACGUUCC | -1.14 ± 0.16 | -0.649 ± 0.2
61 | GUCUAGCAAUAUUACGUUUG | -2.11 ± 0.088 | -1.62 ± 0.11
62 | GUGAAGCAAUAUUACGAACU | -2.15 ± 0.1 | -0.516 ± 0.095
63 | GUGAAGCAAUAUUACGACCC | -1.04 ± 0.43 | 0.469 ± 0.33
64 | GUGAAGCAAUAUUACGACCG | -1.63 ± 0.23 | 0.706 ± 0.28
65 | GUGAAGCAAUAUUACGCCAA | -0.702 ± 0.13 | -1.88 ± 0.16
66 | GUGAAGCAAUAUUACGCCGU | -1.23 ± 0.13 | -0.0879 ± 0.21
67 | GUGAAGCAAUAUUACGCGAC | -0.927 ± 0.21 | -0.922 ± 0.26
68 | GUGAAGCAAUAUUACGGACG | 0.234 ± 0.081 | 0.144 ± 0.092
69 | GUGAAGCAAUAUUACGGACU | -0.0214 ± 0.15 | -0.194 ± 0.19
70 | GUGAAGCAAUAUUACGGGAA | -2.11 ± 0.12 | -0.793 ± 0.11
71 | GUGAAGCAAUAUUACGGGCA | -0.763 ± 0.064 | -0.106 ± 0.083
72 | GUGAAGCAAUAUUACGGUGG | -1.97 ± 0.098 | -1.78 ± 0.16
73 | GUGAAGCAAUAUUACGGUGU | -1.8 ± 0.063 | -0.777 ± 0.082
74 | GUGAAGCAAUAUUACGGUUU | -2.86 ± 0.084 | -0.906 ± 0.11
75 | GUGAAGCAAUAUUACGUACC | -1.07 ± 0.2 | –

Row | Sequence | self-splicing fitness (ln) (30 °C) | self-splicing fitness (ln) (37 °C)
76 | GUGAAGCAAUAUUACGUAGC | -3.31 ± 0.15 | -1.84 ± 0.18
77 | GUGAAGCAAUAUUACGUCGA | -0.469 ± 0.077 | 0.751 ± 0.12
78 | GUGAAGCAAUAUUACGUCUC | -0.941 ± 0.11 | -0.553 ± 0.12
79 | GUGAAGCAAUAUUACGUGUA | -1.11 ± 0.069 | -0.878 ± 0.087
80 | GUGAAGCAAUAUUACGUUCC | -1.67 ± 0.17 | -1.16 ± 0.2
81 | GUGAAGCAAUAUUACGUUUC | -3.08 ± 0.17 | -2.53 ± 0.34
82 | GUGCAGCAAUAUUACGAAGG | -2.59 ± 0.19 | -1.53 ± 0.23
83 | GUGCAGCAAUAUUACGACGU | -0.779 ± 0.11 | 0.0794 ± 0.13
84 | GUGCAGCAAUAUUACGAGCA | -3.43 ± 0.31 | -1.18 ± 0.15
85 | GUGCAGCAAUAUUACGAUAC | -1.58 ± 0.2 | -0.0479 ± 0.17
86 | GUGCAGCAAUAUUACGCAGU | -3.58 ± 0.27 | -2.4 ± 0.28
87 | GUGCAGCAAUAUUACGCAUA | -1.7 ± 0.18 | -0.534 ± 0.14
88 | GUGCAGCAAUAUUACGCUUA | -0.938 ± 0.092 | 0.781 ± 0.15
89 | GUGCAGCAAUAUUACGCUUG | -3.09 ± 0.21 | -2.02 ± 0.27
90 | GUGCAGCAAUAUUACGGACA | -1.58 ± 0.14 | -0.853 ± 0.16
91 | GUGCAGCAAUAUUACGGAGA | – | -1.86 ± 0.38
92 | GUGCAGCAAUAUUACGGAGC | -1.85 ± 0.2 | -1.97 ± 0.19
93 | GUGCAGCAAUAUUACGGCAA | 0.24 ± 0.12 | 0.291 ± 0.15
94 | GUGCAGCAAUAUUACGGGGA | -4.16 ± 0.3 | -2.8 ± 0.23
95 | GUGCAGCAAUAUUACGGUAU | -2.16 ± 0.12 | -1.53 ± 0.15
96 | GUGCAGCAAUAUUACGGUCU | -0.887 ± 0.081 | 0.217 ± 0.093
97 | GUGCAGCAAUAUUACGGUUC | -0.353 ± 0.075 | -0.684 ± 0.11
